Laboratory results from the supplement of paper PMC9112550, “Optimization of the antimicrobial peptide Bac7 by deep mutational scanning” (BMC Biology, 2022).

test system: Escherichia coli TOP10; experiment: shrunken log2 fold change of peptide-encoding DNA abundance (4.5 h post-induction vs induction); higher = less antimicrobial activity (less host growth inhibition); conditions: time post-induction: 4.5 h; library: site-saturation at positions 5, 18, 19, 20
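Also: peptides expressed intracellularly from a pBAD plasmid library in pooled LB shake-flask culture, induced with 0.3% L-arabinose, DNA abundance read by NGS, three biological replicates, DESeq2 with apeglm shrinkage.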

Row | Sequence | shrunken log2 fold change
1 | RRIRKRPPRLPRPRPRPYKPPRP | -0.0134
2 | RRIRKRPPRLPRPRPRPYLPPRP | -0.354
3 | RRIRKRPPRLPRPRPRPYLSPRP | -0.119
4 | RRIRKRPPRLPRPRPRPYNIPRP | -0.133
5 | RRIRKRPPRLPRPRPRPYNSPRP | -0.49
6 | RRIRKRPPRLPRPRPRPYPAPRP | 0.289
7 | RRIRKRPPRLPRPRPRPYPSPRP | 0.0794
8 | RRIRKRPPRLPRPRPRPYRSPRP | 0.0428
9 | RRIRKRPPRLPRPRPRPYSIPRP | -0.182
10 | RRIRKRPPRLPRPRPRPYSVPRP | -0.114
11 | RRIRKRPPRLPRPRPRPYTSPRP | -0.05
12 | RRIRKRPPRLPRPRPRPYTTPRP | -0.0326
13 | RRIRKRPPRLPRPRPRPYVCPRP | -0.0742
14 | RRIRKRPPRLPRPRPRPYYCPRP | 0.32
15 | RRIRKRPPRLPRPRPRPYYDPRP | -0.204
16 | RRIRKRPPRLPRPRPRPYYPPRP | -0.227
17 | RRIRKRPPRLPRPRPRPYYYPRP | -0.704
18 | RRIRLRPPRLPRPRPRPAAEPRP | 0.432
19 | RRIRLRPPRLPRPRPRPAGEPRP | -0.0968
20 | RRIRLRPPRLPRPRPRPALEPRP | 0.155
21 | RRIRLRPPRLPRPRPRPAMCPRP | 0.059
22 | RRIRLRPPRLPRPRPRPAMLPRP | -0.0377
23 | RRIRLRPPRLPRPRPRPAMMPRP | -0.221
24 | RRIRLRPPRLPRPRPRPANDPRP | 0.0379
25 | RRIRLRPPRLPRPRPRPANYPRP | -0.032

Row | Sequence | shrunken log2 fold change
26 | RRIRLRPPRLPRPRPRPAPCPRP | 0.0424
27 | RRIRLRPPRLPRPRPRPARFPRP | 0.0674
28 | RRIRLRPPRLPRPRPRPARLPRP | 0.647
29 | RRIRLRPPRLPRPRPRPARNPRP | 0.483
30 | RRIRLRPPRLPRPRPRPARSPRP | 0.343
31 | RRIRLRPPRLPRPRPRPASEPRP | 0.159
32 | RRIRLRPPRLPRPRPRPAVIPRP | -0.339
33 | RRIRLRPPRLPRPRPRPAVMPRP | 0.113
34 | RRIRLRPPRLPRPRPRPAVSPRP | -0.0934
35 | RRIRLRPPRLPRPRPRPAYCPRP | -0.088
36 | RRIRLRPPRLPRPRPRPCACPRP | -0.385
37 | RRIRLRPPRLPRPRPRPCAEPRP | 0.395
38 | RRIRLRPPRLPRPRPRPCAQPRP | -0.161
39 | RRIRLRPPRLPRPRPRPCARPRP | 0.0322
40 | RRIRLRPPRLPRPRPRPCAVPRP | -0.00495
41 | RRIRLRPPRLPRPRPRPCAWPRP | -0.005
42 | RRIRLRPPRLPRPRPRPCCAPRP | 0.694
43 | RRIRLRPPRLPRPRPRPCCWPRP | 0.41
44 | RRIRLRPPRLPRPRPRPCDDPRP | -0.189
45 | RRIRLRPPRLPRPRPRPCDGPRP | -0.181
46 | RRIRLRPPRLPRPRPRPCDHPRP | -0.239
47 | RRIRLRPPRLPRPRPRPCGFPRP | -0.0181
48 | RRIRLRPPRLPRPRPRPCGVPRP | -0.339
49 | RRIRLRPPRLPRPRPRPCIEPRP | -0.256
50 | RRIRLRPPRLPRPRPRPCISPRP | -0.177

Row | Sequence | shrunken log2 fold change
51 | RRIRLRPPRLPRPRPRPCKEPRP | -0.0177
52 | RRIRLRPPRLPRPRPRPCLEPRP | -0.052
53 | RRIRLRPPRLPRPRPRPCMDPRP | -0.351
54 | RRIRLRPPRLPRPRPRPCMKPRP | -0.101
55 | RRIRLRPPRLPRPRPRPCMTPRP | 0.0964
56 | RRIRLRPPRLPRPRPRPCNGPRP | -0.00674
57 | RRIRLRPPRLPRPRPRPCNKPRP | -0.686
58 | RRIRLRPPRLPRPRPRPCNTPRP | -0.186
59 | RRIRLRPPRLPRPRPRPCNYPRP | -0.593
60 | RRIRLRPPRLPRPRPRPCPVPRP | -0.393
61 | RRIRLRPPRLPRPRPRPCQRPRP | -0.00788
62 | RRIRLRPPRLPRPRPRPCQYPRP | -0.448
63 | RRIRLRPPRLPRPRPRPCRKPRP | -0.19
64 | RRIRLRPPRLPRPRPRPCSEPRP | 0.0739
65 | RRIRLRPPRLPRPRPRPCTDPRP | -0.199
66 | RRIRLRPPRLPRPRPRPCTKPRP | -0.22
67 | RRIRLRPPRLPRPRPRPCWIPRP | -0.241
68 | RRIRLRPPRLPRPRPRPCWYPRP | -0.176
69 | RRIRLRPPRLPRPRPRPDAHPRP | 0.133
70 | RRIRLRPPRLPRPRPRPDCDPRP | 0.183
71 | RRIRLRPPRLPRPRPRPDCIPRP | 0.185
72 | RRIRLRPPRLPRPRPRPDEYPRP | -0.000921
73 | RRIRLRPPRLPRPRPRPDGCPRP | -0.0283
74 | RRIRLRPPRLPRPRPRPDGVPRP | -0.0786
75 | RRIRLRPPRLPRPRPRPDHDPRP | -0.0947
